Experimental data: US20210246166A1 (Bayer, published 2021)
Numbered stars: 1 amine (or outer) side, 2 acyl side, 3 side chain; on linkers, the order of the positions; unused ones are H or OH. Bridge positions count the residues as written; N and C are the ends. Square brackets hold non-standard residues; d marks the D form. Primed or numbered codes have the meaning given here. Ends that are not written are not given here. * marks the point of attachment. X13 = (2S)‑2‑amino‑3‑(1-methylcyclopropyl)propanoic acid, CC1(C[C@H](N[*:1])C(=O)[*:2])CC1; Tranexamic″ = tranexamic acid, NC[C@H]1CC[C@@H](C(=O)*)CC1; X5 = Tetrahydropyranyl‑4‑acetic acid, O=C(CC1CCOCC1)*; Phe(2,5-diF) = O=C([C@H](Cc1cc(F)ccc1F)N[*:1])[*:2]; Oic = O=C(O)[C@@H]1C[C@@H]2CCCC[C@@H]2N1; Cyclobutylacetic = O=C(CC1CCC1)*; tBuAla = CC(C)(C)C[C@H](N)C(=O)O; Pen = CC(C)(S)[C@H](N)C(=O)O; ΔPro = O=C(O)[C@@H]1C=CCN1; NMeC = CN[C@@H](CS)C(=O)O; Sar = CNCC(=O)O

T1: recombinant rat MASP1 active protease (amino acids 302-704, C-terminal His Tag) (rat, UniProt Q8CHN8 302-704)
T1 sequence: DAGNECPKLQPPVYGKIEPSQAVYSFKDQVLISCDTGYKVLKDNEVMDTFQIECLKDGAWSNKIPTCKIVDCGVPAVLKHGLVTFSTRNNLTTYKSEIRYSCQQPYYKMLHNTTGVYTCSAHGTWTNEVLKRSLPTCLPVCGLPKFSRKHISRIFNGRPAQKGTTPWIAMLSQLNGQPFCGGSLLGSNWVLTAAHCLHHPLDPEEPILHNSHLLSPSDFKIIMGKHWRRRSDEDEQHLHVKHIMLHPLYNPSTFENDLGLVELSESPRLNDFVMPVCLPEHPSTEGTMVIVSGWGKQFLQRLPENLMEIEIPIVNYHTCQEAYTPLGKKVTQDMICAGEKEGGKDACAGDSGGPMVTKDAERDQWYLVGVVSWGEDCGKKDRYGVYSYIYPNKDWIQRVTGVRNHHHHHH


Assays:
[1] = molecular target: T1, recombinant rat MASP1 active protease …; test: cell-based or functional assay
[2] = molecular target: recombinant rat MASP2 active protease (amino acids 296-685, C-terminal His Tag) (rat, UniProt Q9JJS8 296-685); test: cell-based or functional assay
recombinant rat MASP2 active protease (amino acids 296-685, C-terminal His Tag), sequence (Q9JJS8 other isoform, or with tags, fused parts or gaps limits assumed): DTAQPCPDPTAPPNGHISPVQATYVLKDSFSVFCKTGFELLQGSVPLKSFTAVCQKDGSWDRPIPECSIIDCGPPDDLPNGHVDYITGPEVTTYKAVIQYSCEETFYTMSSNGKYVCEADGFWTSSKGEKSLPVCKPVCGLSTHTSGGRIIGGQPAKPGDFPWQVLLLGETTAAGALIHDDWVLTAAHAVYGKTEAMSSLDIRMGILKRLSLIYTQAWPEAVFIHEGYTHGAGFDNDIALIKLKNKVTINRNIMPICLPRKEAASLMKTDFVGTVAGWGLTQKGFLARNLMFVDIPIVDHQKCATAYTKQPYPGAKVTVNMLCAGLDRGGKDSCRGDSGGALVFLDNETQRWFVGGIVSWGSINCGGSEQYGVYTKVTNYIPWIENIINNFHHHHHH

Binder | rat MASP1 IC50 [1] | rat MASP2 IC50 [2]
GICSRSLP[Oic]ICIPD-OH (disulfide 3-11; N-terminus assumed; SMILES CC[C@H](C)[C@H](NC(=O)CN)C(=O)N[C@H]1CSSC[C@@H](C(=O)N[C@H](C(=O)N2CCC[C@H]2C(=O)N[C@@H](CC(=O)O)C(=O)O)[C@@H](C)CC)NC(=O)[C@H]([C@@H](C)CC)NC(=O)[C@@H]2C[C@@H]3CCCC[C@@H]3N2C(=O)[C@@H]2CCCN2C(=O)[C@H](CC(C)C)NC(=O)[C@H](CO)NC(=O)[C@H](CCCNC(=N)N)NC(=O)[C@H](CO)NC1=O) [Example 323: GIC+SRSLP-(Oic)-IC+IPD-OH] | 51.8 nM | 60.1 nM
[Sar]ICSRSLPPI[NMeC]IPD-OH (disulfide 3-11; N-terminus assumed; SMILES CC[C@H](C)[C@H](NC(=O)CNC)C(=O)N[C@H]1CSSC[C@@H](C(=O)N[C@H](C(=O)N2CCC[C@H]2C(=O)N[C@@H](CC(=O)O)C(=O)O)[C@@H](C)CC)N(C)C(=O)[C@H]([C@@H](C)CC)NC(=O)[C@@H]2CCCN2C(=O)[C@@H]2CCCN2C(=O)[C@H](CC(C)C)NC(=O)[C@H](CO)NC(=O)[C@H](CCCNC(=N)N)NC(=O)[C@H](CO)NC1=O) [Example 232: ((N-Me)G)-IC+SRSLPPI-((N-Me)C)+IPD-OH] | 67.3 nM | 125 nM
ICSRSLP[Oic]I[Pen]IPD-OH (disulfide 2-10; N-terminus assumed; SMILES CC[C@H](C)[C@H](N)C(=O)N[C@H]1CSSC(C)(C)[C@@H](C(=O)N[C@H](C(=O)N2CCC[C@H]2C(=O)N[C@@H](CC(=O)O)C(=O)O)[C@@H](C)CC)NC(=O)[C@H]([C@@H](C)CC)NC(=O)[C@@H]2C[C@@H]3CCCC[C@@H]3N2C(=O)[C@@H]2CCCN2C(=O)[C@H](CC(C)C)NC(=O)[C@H](CO)NC(=O)[C@H](CCCNC(=N)N)NC(=O)[C@H](CO)NC1=O) [Example 347: IC+SRSLP-(Oic)-I-(Pen)+IPD-OH] | 1000 nM | 1000 nM
{Tranexamic″}-ICSRS[tBuAla]PPI[Pen]IP-NH2 (disulfide 2-10; SMILES CC[C@H](C)[C@@H]1NC(=O)[C@@H]2CCCN2C(=O)[C@@H]2CCCN2C(=O)[C@H](CC(C)(C)C)NC(=O)[C@H](CO)NC(=O)[C@H](CCCNC(=N)N)NC(=O)[C@H](CO)NC(=O)[C@@H](NC(=O)[C@@H](NC(=O)[C@H]2CC[C@@H](CN)CC2)[C@@H](C)CC)CSSC(C)(C)[C@@H](C(=O)N[C@H](C(=O)N2CCC[C@H]2C(N)=O)[C@@H](C)CC)NC1=O) [Example 269: (Tranexamic)-IC+SRS-((tBu)A)-PPI-(Pen)+IP-NH2] | 120 nM | 9.6 nM
X5-ICSRS[tBuAla]PPI[NMeC]I-NH2 (disulfide 2-10; SMILES CC[C@H](C)[C@H](NC(=O)[C@@H]1CSSC[C@H](NC(=O)[C@@H](NC(=O)CC2CCOCC2)[C@@H](C)CC)C(=O)N[C@@H](CO)C(=O)N[C@@H](CCCNC(=N)N)C(=O)N[C@@H](CO)C(=O)N[C@@H](CC(C)(C)C)C(=O)N2CCC[C@H]2C(=O)N2CCC[C@H]2C(=O)N[C@@H]([C@@H](C)CC)C(=O)N1C)C(N)=O) [Example 305: (Tetrahydropyranyl-4-acetic acid)-IC+SRS-((tBu)A)-PPI-((N-Me)C)+I-NH2] | 76 nM | 5.3 nM
Cyclobutylacetic-ICSRS[tBuAla]PPI[Pen]IP-NH2 (disulfide 2-10; SMILES CC[C@H](C)[C@H](NC(=O)CC1CCC1)C(=O)N[C@H]1CSSC(C)(C)[C@@H](C(=O)N[C@H](C(=O)N2CCC[C@H]2C(N)=O)[C@@H](C)CC)NC(=O)[C@H]([C@@H](C)CC)NC(=O)[C@@H]2CCCN2C(=O)[C@@H]2CCCN2C(=O)[C@H](CC(C)(C)C)NC(=O)[C@H](CO)NC(=O)[C@H](CCCNC(=N)N)NC(=O)[C@H](CO)NC1=O) [Example 284: (Cyclobutylacetic)-IC+SRS-((tBu)A)-PPI-(Pen)+IP-NH2] | 60 nM | 9.7 nM
[Sar]ICSRSLPPICIPD-NH2 (disulfide 3-11; N-terminus assumed; SMILES CC[C@H](C)[C@H](NC(=O)CNC)C(=O)N[C@H]1CSSC[C@@H](C(=O)N[C@H](C(=O)N2CCC[C@H]2C(=O)N[C@@H](CC(=O)O)C(N)=O)[C@@H](C)CC)NC(=O)[C@H]([C@@H](C)CC)NC(=O)[C@@H]2CCCN2C(=O)[C@@H]2CCCN2C(=O)[C@H](CC(C)C)NC(=O)[C@H](CO)NC(=O)[C@H](CCCNC(=N)N)NC(=O)[C@H](CO)NC1=O) [Example 271: ((N-Me)G)-IC+SRSLPPIC+IPD-NH2] | 88.7 nM | 55.2 nM
[Sar]ICSRSLPPICIPD-OH (disulfide 3-11; N-terminus assumed; SMILES CC[C@H](C)[C@H](NC(=O)CNC)C(=O)N[C@H]1CSSC[C@@H](C(=O)N[C@H](C(=O)N2CCC[C@H]2C(=O)N[C@@H](CC(=O)O)C(=O)O)[C@@H](C)CC)NC(=O)[C@H]([C@@H](C)CC)NC(=O)[C@@H]2CCCN2C(=O)[C@@H]2CCCN2C(=O)[C@H](CC(C)C)NC(=O)[C@H](CO)NC(=O)[C@H](CCCNC(=N)N)NC(=O)[C@H](CO)NC1=O) [Example 281: ((N-Me)G)-IC+SRSLPPIC+IPD-OH] | 270 nM | 308 nM
AICSRSLP[Oic]ICIPD-NH2 (disulfide 3-11; N-terminus assumed; SMILES CC[C@H](C)[C@H](NC(=O)[C@H](C)N)C(=O)N[C@H]1CSSC[C@@H](C(=O)N[C@H](C(=O)N2CCC[C@H]2C(=O)N[C@@H](CC(=O)O)C(N)=O)[C@@H](C)CC)NC(=O)[C@H]([C@@H](C)CC)NC(=O)[C@@H]2C[C@@H]3CCCC[C@@H]3N2C(=O)[C@@H]2CCCN2C(=O)[C@H](CC(C)C)NC(=O)[C@H](CO)NC(=O)[C@H](CCCNC(=N)N)NC(=O)[C@H](CO)NC1=O) [Example 224: AIC+SRSLP-(Oic)-IC+IPD-NH2] | 60.4 nM | 42.4 nM
AICSRS[Phe(2,5-diF)]PPI[NMeC]IPD-NH2 (disulfide 3-11; N-terminus assumed; SMILES CC[C@H](C)[C@H](NC(=O)[C@H](C)N)C(=O)N[C@H]1CSSC[C@@H](C(=O)N[C@H](C(=O)N2CCC[C@H]2C(=O)N[C@@H](CC(=O)O)C(N)=O)[C@@H](C)CC)N(C)C(=O)[C@H]([C@@H](C)CC)NC(=O)[C@@H]2CCCN2C(=O)[C@@H]2CCCN2C(=O)[C@H](Cc2cc(F)ccc2F)NC(=O)[C@H](CO)NC(=O)[C@H](CCCNC(=N)N)NC(=O)[C@H](CO)NC1=O) [Example 235: AIC+SRS-((2,5-Difluoro)F)-PPI-((N-Me)C)+IPD-NH2] | 380 nM | 29 nM
{2‑(3-Pyridyl)acetic acid}-ICSRS[tBuAla]PPI[Pen]IP-NH2 (disulfide 2-10) [Example 226: (2-(3-Pyridyl)acetic acid)-IC+SRS-((tBu)A)-PPI-(Pen)+IP-NH2] | 29 nM | 2.9 nM
AICSRSL[ΔPro][Oic]I[Pen]IPD-OH (disulfide 3-11; N-terminus assumed; SMILES CC[C@H](C)[C@H](NC(=O)[C@H](C)N)C(=O)N[C@H]1CSSC(C)(C)[C@@H](C(=O)N[C@H](C(=O)N2CCC[C@H]2C(=O)N[C@@H](CC(=O)O)C(=O)O)[C@@H](C)CC)NC(=O)[C@H]([C@@H](C)CC)NC(=O)[C@@H]2C[C@@H]3CCCC[C@@H]3N2C(=O)[C@@H]2C=CCN2C(=O)[C@H](CC(C)C)NC(=O)[C@H](CO)NC(=O)[C@H](CCCNC(=N)N)NC(=O)[C@H](CO)NC1=O) [Example 237: AIC+SRSL-(L-dehydroproline)-(Oic)-I-(Pen)+IPD-OH] | 1000 nM | 1000 nM
GICSRS[tBuAla]P[Oic]I[NMeC]IPD-NH2 (disulfide 3-11; N-terminus assumed; SMILES CC[C@H](C)[C@H](NC(=O)CN)C(=O)N[C@H]1CSSC[C@@H](C(=O)N[C@H](C(=O)N2CCC[C@H]2C(=O)N[C@@H](CC(=O)O)C(N)=O)[C@@H](C)CC)N(C)C(=O)[C@H]([C@@H](C)CC)NC(=O)[C@@H]2C[C@@H]3CCCC[C@@H]3N2C(=O)[C@@H]2CCCN2C(=O)[C@H](CC(C)(C)C)NC(=O)[C@H](CO)NC(=O)[C@H](CCCNC(=N)N)NC(=O)[C@H](CO)NC1=O) [Example 212: GIC+SRS-((tBu)A)-P-(Oic)-I-((N-Me)C)+IPD-NH2] | 24.6 nM | 34.5 nM
FICSRS[tBuAla]PPI[Pen]IPD-NH2 (disulfide 3-11; N-terminus assumed; SMILES CC[C@H](C)[C@H](NC(=O)[C@@H](N)Cc1ccccc1)C(=O)N[C@H]1CSSC(C)(C)[C@@H](C(=O)N[C@H](C(=O)N2CCC[C@H]2C(=O)N[C@@H](CC(=O)O)C(N)=O)[C@@H](C)CC)NC(=O)[C@H]([C@@H](C)CC)NC(=O)[C@@H]2CCCN2C(=O)[C@@H]2CCCN2C(=O)[C@H](CC(C)(C)C)NC(=O)[C@H](CO)NC(=O)[C@H](CCCNC(=N)N)NC(=O)[C@H](CO)NC1=O) [Example 211: FIC+SRS-((tBu)A)-PPI-(Pen)+IPD-NH2] | 75 nM | 23 nM
[Sar]ICSRS[X13]P[Oic]I[Pen]IP-NH2 (disulfide 3-11; N-terminus assumed; SMILES CC[C@H](C)[C@H](NC(=O)CNC)C(=O)N[C@H]1CSSC(C)(C)[C@@H](C(=O)N[C@H](C(=O)N2CCC[C@H]2C(N)=O)[C@@H](C)CC)NC(=O)[C@H]([C@@H](C)CC)NC(=O)[C@@H]2C[C@@H]3CCCC[C@@H]3N2C(=O)[C@@H]2CCCN2C(=O)[C@H](CC2(C)CC2)NC(=O)[C@H](CO)NC(=O)[C@H](CCCNC(=N)N)NC(=O)[C@H](CO)NC1=O) | 130 nM | 42 nM
